This assay deals with T1, Human recombinant AXL-FND1 (GST-FND1), from pET-41b(+) (human, UniProt P30530 225-331).
T1 construct: Expressed in E. coli, purified on Glutathione Sepharose; analyte in all Biacore measurements; GST put first by the usual layout of pET-41; not shown: GST-tag of vector pET-41b(+) (Novagen)
T1 sequence (looked up): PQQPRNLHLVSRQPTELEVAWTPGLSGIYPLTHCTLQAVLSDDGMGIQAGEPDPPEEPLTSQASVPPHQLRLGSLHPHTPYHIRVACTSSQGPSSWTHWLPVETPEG
Put plainly: SPR (Biacore T100): antibody captured on Protein A, GST-FND1 as analyte. How it is done: Kinetic analyses of antigen-antibody reactions of humanized AXL antibodies were carried out using Biacore T100 (BIACORE). rec-Protein A (Zymed) (hereinafter, Protein A) was immobilized onto a sensor chip, various antibodies were bound to it, then an antigen as the analyte was flushed to measure the antibody-antigen interaction. Human recombinant AXL-FND1 (prepared in 2-2; hereinafter referred to as GST-FND1) prepared at various concentrations was used as the antigen. From the sensorgrams obtained through the measurements, kinetic parameters, namely binding rate constant kₐ (1/Ms) and dissociation rate constant kd (1/s), were calculated, and Kd (M) was calculated based on these values. Biacore T100 Evaluation Software (BIACORE) was used to calculate each of the parameters.
The sensor chips were produced by immobilizing approximately 3000 RU of Protein A onto CM5 (BIACORE) by amine coupling. Using the produced sensor chip, kinetic analyses were carried out on the interaction between the Protein A-bound antibodies and GST-FND1. HBS-EP+ was used as the running buffer, and the flow rate was set to 30 μL/min. Each antibody was prepared at 1 μg/mL using the running buffer, and was subjected to binding with Protein A for two minutes. GST-FND1 as the analyte was prepared at 0.5 and 2.0 μg/mL using HBS-EP+. Measurements were carried out by first binding the various humanized AXL antibodies, chimeric AXL antibodies, or mouse AXL antibodies of interest to Protein A, then applying an analyte solution to them for a two-minute interaction, and then switching to HBS-EP+ (BIACORE) for a two-minute measurement of the dissociation phase. After completion of measurement of the dissociation phase, 30 μL of 10 mM glycine-HCl (pH 2.0) was used for washing to regenerate the sensor chip. Such binding, dissociation, and regeneration were defined as one cycle of analysis. All experiments were performed at 25° C.
Affinity evaluation of each of the variants by Biacore was carried out by the method of Example 2.
(In general: In SPR one partner is held on a chip, and binding of the other changes the refractive index at the surface.)

For orientation: Kd means a measure of binding affinity in units of concentration.

B1: H9/L37 (antibody, human IgG1, kappa)
heavy: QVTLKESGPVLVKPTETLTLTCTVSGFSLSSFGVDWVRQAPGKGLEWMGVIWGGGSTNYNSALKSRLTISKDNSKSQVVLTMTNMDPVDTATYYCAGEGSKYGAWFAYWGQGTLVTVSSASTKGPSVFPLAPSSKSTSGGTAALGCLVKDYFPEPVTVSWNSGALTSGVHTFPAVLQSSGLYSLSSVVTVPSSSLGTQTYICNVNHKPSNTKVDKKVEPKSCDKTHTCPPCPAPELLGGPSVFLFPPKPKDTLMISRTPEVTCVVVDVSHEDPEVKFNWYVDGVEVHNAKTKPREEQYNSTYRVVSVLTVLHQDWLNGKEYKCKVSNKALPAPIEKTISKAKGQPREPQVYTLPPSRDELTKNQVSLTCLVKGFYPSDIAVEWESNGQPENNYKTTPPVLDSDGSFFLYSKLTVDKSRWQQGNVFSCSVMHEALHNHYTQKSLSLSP
light: DVVMTQSPLSLPVTLGRPASISCRSSRNIVHTNGNTYLEWYQQKPGKAPKLLIYKVSNRFSGVPDRFSGSGSGTDFTLKISRVEAEDVGVYYCFQGSHIPFTFGRGTKLEIKRTVAAPSVFIFPPSDEQLKSGTASVVCLLNNFYPREAKVQWKVDNALQSGNSQESVTEQDSKDSTYSLSSTLTLSKADYEKHKVYACEVTHQGLSSPVTKSFNRGEC
As for B1, the dissociation constant Kd amounted to 2.69 nM.

B2: H27/L0 (antibody, human IgG1, kappa, V domains shown)
VH: QVTLKESGPVLVKPTETLTLTCTVSGFSLSSFGVDWVRQAPGKGLEWMGVIWGGGSTNYNSELQDRLTISKDNSKSQVVLTMTNMDPVDTATYYCAGEGSKYGAWFAYWGQGTLVTVSS
VL: DVVMTQSPLSLPVTLGQPASISCRSSQNIVHTNGNTYLEWYQQKPGKAPELLIYKVSNRFSGVPDRFSGSGSGTDFTLKISRVEAEDVGVYYCFQGSHIPFTFGQGTKLEIKR
As to B2, the Kd worked out at 3.03 nM.

B3: H28/L0 (antibody, human IgG1, kappa, V domains shown)
VH: QVTLKESGPVLVKPTETLTLTCTVSGFSLSSFGVDWVRQAPGKGLEWMGVIWGGGSTNYNEELQDRLTISKDNSKSQVVLTMTNMDPVDTATYYCAGEGSKYGAWFAYWGQGTLVTVSS
VL: DVVMTQSPLSLPVTLGQPASISCRSSQNIVHTNGNTYLEWYQQKPGKAPELLIYKVSNRFSGVPDRFSGSGSGTDFTLKISRVEAEDVGVYYCFQGSHIPFTFGQGTKLEIKR
Turning to B3, the Kd came out at 2.94 nM.

B4: H20/L0 (antibody, human IgG1, kappa, V domains shown)
VH: QVTLKESGPVLVKPTETLTLTCTVSGFSLSSFGVDWVRQPPGEGLEWIGVIWGGGSTNYNSALKSRLTISKDNSKSQVVLTMTNMDPVDTATYYCAGEGSKYGAWFAYWGQGTLVTVSS
VL: DVVMTQSPLSLPVTLGQPASISCRSSQNIVHTNGNTYLEWYQQKPGKAPELLIYKVSNRFSGVPDRFSGSGSGTDFTLKISRVEAEDVGVYYCFQGSHIPFTFGQGTKLEIKR
Turning to B4, the Kd came out at 3.21 nM.

B5: H30/L0 (antibody, human IgG1, kappa)
heavy: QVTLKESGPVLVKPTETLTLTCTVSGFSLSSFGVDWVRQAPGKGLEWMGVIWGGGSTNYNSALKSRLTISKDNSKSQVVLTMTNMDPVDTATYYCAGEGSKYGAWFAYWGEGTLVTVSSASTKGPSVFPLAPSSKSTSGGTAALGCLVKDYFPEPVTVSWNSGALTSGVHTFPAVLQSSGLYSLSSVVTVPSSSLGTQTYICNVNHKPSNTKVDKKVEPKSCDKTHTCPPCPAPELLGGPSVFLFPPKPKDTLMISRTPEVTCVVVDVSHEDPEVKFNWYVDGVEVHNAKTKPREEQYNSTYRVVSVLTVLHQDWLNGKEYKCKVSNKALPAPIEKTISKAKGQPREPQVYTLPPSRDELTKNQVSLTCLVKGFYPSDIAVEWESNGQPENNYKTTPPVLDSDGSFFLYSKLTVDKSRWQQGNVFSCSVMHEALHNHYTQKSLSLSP
light: DVVMTQSPLSLPVTLGQPASISCRSSQNIVHTNGNTYLEWYQQKPGKAPELLIYKVSNRFSGVPDRFSGSGSGTDFTLKISRVEAEDVGVYYCFQGSHIPFTFGQGTKLEIKRTVAAPSVFIFPPSDEQLKSGTASVVCLLNNFYPREAKVQWKVDNALQSGNSQESVTEQDSKDSTYSLSSTLTLSKADYEKHKVYACEVTHQGLSSPVTKSFNRGEC
In the case of B5, the dissociation constant (Kd) is 2.7 nM.

B6: H21/L0 (antibody, human IgG1, kappa, V domains shown)
VH: QVTLKESGPVLVKPTETLTLTCTVSGFSLSSFGVDWVRQAPGKGLEWMGVIWGGGSTNYNEALKSRLTISKDNSKSQVVLTMTNMDPVDTATYYCAGEGSKYGAWFAYWGQGTLVTVSS
VL: DVVMTQSPLSLPVTLGQPASISCRSSQNIVHTNGNTYLEWYQQKPGKAPELLIYKVSNRFSGVPDRFSGSGSGTDFTLKISRVEAEDVGVYYCFQGSHIPFTFGQGTKLEIKR
B6: the dissociation constant Kd was 2.35 nM.

B7: H19/L0 (antibody, human IgG1, kappa, V domains shown)
VH: QVTLKESGPVLVKPTETLTLTCTVSGFSLSSFGVDWVRQAPGQGLEWMGVIWGGGSTNYNSALKSRLTISKDNSKSQVVLTMTNMDPVDTATYYCAGEGSKYGAWFAYWGQGTLVTVSS
VL: DVVMTQSPLSLPVTLGQPASISCRSSQNIVHTNGNTYLEWYQQKPGKAPELLIYKVSNRFSGVPDRFSGSGSGTDFTLKISRVEAEDVGVYYCFQGSHIPFTFGQGTKLEIKR
In the case of B7, the Kd is 2.63 nM.

B8: H22/L0 (antibody, human IgG1, kappa, V domains shown)
VH: QVTLKESGPVLVKPTETLTLTCTVSGFSLSSFGVDWVRQAPGKGLEWMGVIWGGGSTNYNSELKSRLTISKDNSKSQVVLTMTNMDPVDTATYYCAGEGSKYGAWFAYWGQGTLVTVSS
VL: DVVMTQSPLSLPVTLGQPASISCRSSQNIVHTNGNTYLEWYQQKPGKAPELLIYKVSNRFSGVPDRFSGSGSGTDFTLKISRVEAEDVGVYYCFQGSHIPFTFGQGTKLEIKR
B8: the Kd amounted to 3.14 nM.

B9: H18/L0 (antibody, human IgG1, kappa, V domains shown)
VH: QVTLKESGPVLVKPTETLTLTCTVSGFSLSEFGVDWVRQAPGKGLEWMGVIWGGGSTNYNSALKSRLTISKDNSKSQVVLTMTNMDPVDTATYYCAGEGSKYGAWFAYWGQGTLVTVSS
VL: DVVMTQSPLSLPVTLGQPASISCRSSQNIVHTNGNTYLEWYQQKPGKAPELLIYKVSNRFSGVPDRFSGSGSGTDFTLKISRVEAEDVGVYYCFQGSHIPFTFGQGTKLEIKR
For the molecule B9, the Kd was found to be 4.31 nM.

B10: H17/L0 (antibody, human IgG1, kappa, V domains shown)
VH: QVTLKESGPVLVKPTETLTLTCTVSGFSLSDFGVDWVRQAPGKGLEWMGVIWGGGSTNYNSALKSRLTISKDNSKSQVVLTMTNMDPVDTATYYCAGEGSKYGAWFAYWGQGTLVTVSS
VL: DVVMTQSPLSLPVTLGQPASISCRSSQNIVHTNGNTYLEWYQQKPGKAPELLIYKVSNRFSGVPDRFSGSGSGTDFTLKISRVEAEDVGVYYCFQGSHIPFTFGQGTKLEIKR
With B10, the Kd stood at 3.46 nM.

B11: H26/L12 (antibody, human IgG1, kappa)
heavy: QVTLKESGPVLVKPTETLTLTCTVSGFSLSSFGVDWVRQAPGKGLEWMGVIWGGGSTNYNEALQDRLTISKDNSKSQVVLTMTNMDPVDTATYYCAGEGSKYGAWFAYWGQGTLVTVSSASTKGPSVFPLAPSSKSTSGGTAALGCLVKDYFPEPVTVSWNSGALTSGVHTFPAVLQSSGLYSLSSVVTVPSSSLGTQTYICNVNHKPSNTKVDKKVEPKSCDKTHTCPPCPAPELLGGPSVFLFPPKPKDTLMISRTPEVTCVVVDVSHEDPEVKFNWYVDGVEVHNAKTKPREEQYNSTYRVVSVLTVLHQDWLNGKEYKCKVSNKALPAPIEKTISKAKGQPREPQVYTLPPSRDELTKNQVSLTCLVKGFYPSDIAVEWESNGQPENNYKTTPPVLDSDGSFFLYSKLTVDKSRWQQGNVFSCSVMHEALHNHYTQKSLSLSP
light: DVVMTQSPLSLPVTLGQPASISCQSSQNIVHTNGNTYLEWYQQKPGEAPELLIYKVSNRFSGVPDRFSGSGSGTDFTLKISRVEAEDVGVYYCFQGSHIPFTFGQGTKVEIERTVAAPSVFIFPPSDEQLKSGTASVVCLLNNFYPREAKVQWKVDNALQSGNSQESVTEQDSKDSTYSLSSTLTLSKADYEKHKVYACEVTHQGLSSPVTKSFNRGEC
Consider B11, for which the dissociation constant (Kd) was 2.79 nM.

B12: H26/L10 (antibody, human IgG1, kappa)
heavy: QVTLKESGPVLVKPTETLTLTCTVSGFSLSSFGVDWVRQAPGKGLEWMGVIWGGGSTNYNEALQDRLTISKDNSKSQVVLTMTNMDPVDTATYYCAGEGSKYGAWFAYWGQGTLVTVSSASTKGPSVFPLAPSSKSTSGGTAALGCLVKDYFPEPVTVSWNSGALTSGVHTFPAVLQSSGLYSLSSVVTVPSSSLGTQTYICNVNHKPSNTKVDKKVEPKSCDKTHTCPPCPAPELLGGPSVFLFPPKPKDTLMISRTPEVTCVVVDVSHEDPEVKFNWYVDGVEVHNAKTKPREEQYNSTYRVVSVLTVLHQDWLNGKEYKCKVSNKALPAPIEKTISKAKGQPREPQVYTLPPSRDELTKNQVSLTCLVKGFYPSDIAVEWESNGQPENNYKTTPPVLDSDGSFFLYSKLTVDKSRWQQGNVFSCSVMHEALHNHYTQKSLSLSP
light: DVVMTQSPLSLPVTLGQPASISCRSSQNIVHTNGNTYLEWYQQKPGKAPELLIYKVSNRFSGVPDRFSGSGSGTDFTLKISRVEAEDVGVYYCFQGSHIPFTFGQGTKVEIERTVAAPSVFIFPPSDEQLKSGTASVVCLLNNFYPREAKVQWKVDNALQSGNSQESVTEQDSKDSTYSLSSTLTLSKADYEKHKVYACEVTHQGLSSPVTKSFNRGEC
Turning to B12, the dissociation constant (Kd) is 2.38 nM.

B13: H25/L0 (antibody, human IgG1, kappa, V domains shown)
VH: QVTLKESGPVLVKPTETLTLTCTVSGFSLSSFGVDWVRQAPGKGLEWMGVIWGGGSTNYNSALQDRLTISKDNSKSQVVLTMTNMDPVDTATYYCAGEGSKYGAWFAYWGQGTLVTVSS
VL: DVVMTQSPLSLPVTLGQPASISCRSSQNIVHTNGNTYLEWYQQKPGKAPELLIYKVSNRFSGVPDRFSGSGSGTDFTLKISRVEAEDVGVYYCFQGSHIPFTFGQGTKLEIKR
As for B13, the equilibrium dissociation constant (Kd) worked out at 2.5 nM.

B14: H23/L0 (antibody, human IgG1, kappa, V domains shown)
VH: QVTLKESGPVLVKPTETLTLTCTVSGFSLSSFGVDWVRQAPGKGLEWMGVIWGGGSTNYNSALQSRLTISKDNSKSQVVLTMTNMDPVDTATYYCAGEGSKYGAWFAYWGQGTLVTVSS
VL: DVVMTQSPLSLPVTLGQPASISCRSSQNIVHTNGNTYLEWYQQKPGKAPELLIYKVSNRFSGVPDRFSGSGSGTDFTLKISRVEAEDVGVYYCFQGSHIPFTFGQGTKLEIKR
With B14, the dissociation constant Kd was 2.39 nM.

B15: H26/L0 (antibody, human IgG1, kappa)
heavy: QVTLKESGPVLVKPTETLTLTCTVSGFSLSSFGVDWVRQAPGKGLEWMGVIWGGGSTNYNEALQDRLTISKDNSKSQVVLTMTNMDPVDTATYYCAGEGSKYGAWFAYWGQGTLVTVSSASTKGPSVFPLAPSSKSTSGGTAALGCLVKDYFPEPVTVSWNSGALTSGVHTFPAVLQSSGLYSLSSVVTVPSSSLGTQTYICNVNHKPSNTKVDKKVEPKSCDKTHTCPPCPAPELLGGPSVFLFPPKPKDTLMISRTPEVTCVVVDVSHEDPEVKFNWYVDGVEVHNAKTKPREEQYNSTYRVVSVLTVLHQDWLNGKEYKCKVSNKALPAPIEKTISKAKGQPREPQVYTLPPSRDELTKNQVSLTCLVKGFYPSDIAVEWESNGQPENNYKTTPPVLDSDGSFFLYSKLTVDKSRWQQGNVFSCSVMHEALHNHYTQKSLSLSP
light: DVVMTQSPLSLPVTLGQPASISCRSSQNIVHTNGNTYLEWYQQKPGKAPELLIYKVSNRFSGVPDRFSGSGSGTDFTLKISRVEAEDVGVYYCFQGSHIPFTFGQGTKLEIKRTVAAPSVFIFPPSDEQLKSGTASVVCLLNNFYPREAKVQWKVDNALQSGNSQESVTEQDSKDSTYSLSSTLTLSKADYEKHKVYACEVTHQGLSSPVTKSFNRGEC
On to B15, for which the Kd was found to be 2.5 nM.

B16: H26/L11 (antibody, human IgG1, kappa)
heavy: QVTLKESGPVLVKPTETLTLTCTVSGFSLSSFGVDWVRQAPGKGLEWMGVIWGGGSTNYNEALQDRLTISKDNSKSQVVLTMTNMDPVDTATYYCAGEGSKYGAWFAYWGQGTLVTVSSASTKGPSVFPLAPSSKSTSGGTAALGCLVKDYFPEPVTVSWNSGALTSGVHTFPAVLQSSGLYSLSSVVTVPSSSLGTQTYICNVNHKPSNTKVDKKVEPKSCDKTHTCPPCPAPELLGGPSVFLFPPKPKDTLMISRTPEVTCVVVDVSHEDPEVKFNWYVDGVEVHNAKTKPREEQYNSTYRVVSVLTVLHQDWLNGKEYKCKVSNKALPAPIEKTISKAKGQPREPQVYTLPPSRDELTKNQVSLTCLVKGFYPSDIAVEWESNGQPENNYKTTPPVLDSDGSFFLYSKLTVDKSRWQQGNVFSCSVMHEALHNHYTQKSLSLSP
light: DVVMTQSPLSLPVTLGQPASISCQSSQNIVHTNGNTYLEWYQQKPGKAPELLIYKVSNRFSGVPDRFSGSGSGTDFTLKISRVEAEDVGVYYCFQGSHIPFTFGQGTKVEIERTVAAPSVFIFPPSDEQLKSGTASVVCLLNNFYPREAKVQWKVDNALQSGNSQESVTEQDSKDSTYSLSSTLTLSKADYEKHKVYACEVTHQGLSSPVTKSFNRGEC
B16: the dissociation constant Kd was found to be 2.71 nM.

B17: H24/L0 (antibody, human IgG1, kappa, V domains shown)
VH: QVTLKESGPVLVKPTETLTLTCTVSGFSLSSFGVDWVRQAPGKGLEWMGVIWGGGSTNYNSALKDRLTISKDNSKSQVVLTMTNMDPVDTATYYCAGEGSKYGAWFAYWGQGTLVTVSS
VL: DVVMTQSPLSLPVTLGQPASISCRSSQNIVHTNGNTYLEWYQQKPGKAPELLIYKVSNRFSGVPDRFSGSGSGTDFTLKISRVEAEDVGVYYCFQGSHIPFTFGQGTKLEIKR
As for B17, the dissociation constant Kd stood at 2.56 nM.

B18: H26/L13 (antibody, human IgG1, kappa)
heavy: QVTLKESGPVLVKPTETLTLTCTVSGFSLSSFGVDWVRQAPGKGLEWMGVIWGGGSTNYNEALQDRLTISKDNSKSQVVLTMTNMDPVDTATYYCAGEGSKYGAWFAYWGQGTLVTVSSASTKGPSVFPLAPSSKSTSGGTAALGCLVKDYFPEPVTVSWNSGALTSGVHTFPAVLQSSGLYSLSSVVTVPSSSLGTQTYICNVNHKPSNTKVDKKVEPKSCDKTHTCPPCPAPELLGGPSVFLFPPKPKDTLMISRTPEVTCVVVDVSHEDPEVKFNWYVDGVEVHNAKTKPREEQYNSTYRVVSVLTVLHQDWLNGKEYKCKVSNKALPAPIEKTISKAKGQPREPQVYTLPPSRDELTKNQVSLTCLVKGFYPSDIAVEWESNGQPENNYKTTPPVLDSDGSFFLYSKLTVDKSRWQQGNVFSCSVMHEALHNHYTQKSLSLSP
light: DVVMTQSPLSLPVTLGQPASISCQSSQNIVHTNGNTYLEWYQQKPGQAPELLIYKVSNRFSGVPDRFSGSGSGTDFTLKISRVEAEDVGVYYCFQGSHIPFTFGQGTKVEIERTVAAPSVFIFPPSDEQLKSGTASVVCLLNNFYPREAKVQWKVDNALQSGNSQESVTEQDSKDSTYSLSSTLTLSKADYEKHKVYACEVTHQGLSSPVTKSFNRGEC
As for B18, the Kd was found to be 2.5 nM.
